This note sets out measurements from publication PMC9804225.

pKd: −log10 of the molar value.

Test [1] has as its target recombinantly expressed GFP Nb. The experiment in a line: BLI; Nbs immobilised by their C-terminal His-tag on Ni-NTA biosensor tips; untagged GFP as analyte at 1 nM to 100 nM. Background: In BLI a coated tip is dipped into the sample, and binding shifts an interference pattern.
In test [2] the target is synthetic GFP Nb_(1–123)‐linker‐PA (5), folded. The test is described as above.

Broadly, the pKd is the Kd on a negative log10 scale, so that one unit is a factor of ten.

As to “untagged GFP (from UniProt P42212 1-238) (natural protein)”, the pKd in test [1] and in test [2] was 8.95 in each case.
